Where a chain is given by its changes, count along the chain named.
T1: Human CD98 expressed on stably transfected CHO-K1 cells (human)
T1 construct: also called huCD98; CD98 heavy chain
T1 chain: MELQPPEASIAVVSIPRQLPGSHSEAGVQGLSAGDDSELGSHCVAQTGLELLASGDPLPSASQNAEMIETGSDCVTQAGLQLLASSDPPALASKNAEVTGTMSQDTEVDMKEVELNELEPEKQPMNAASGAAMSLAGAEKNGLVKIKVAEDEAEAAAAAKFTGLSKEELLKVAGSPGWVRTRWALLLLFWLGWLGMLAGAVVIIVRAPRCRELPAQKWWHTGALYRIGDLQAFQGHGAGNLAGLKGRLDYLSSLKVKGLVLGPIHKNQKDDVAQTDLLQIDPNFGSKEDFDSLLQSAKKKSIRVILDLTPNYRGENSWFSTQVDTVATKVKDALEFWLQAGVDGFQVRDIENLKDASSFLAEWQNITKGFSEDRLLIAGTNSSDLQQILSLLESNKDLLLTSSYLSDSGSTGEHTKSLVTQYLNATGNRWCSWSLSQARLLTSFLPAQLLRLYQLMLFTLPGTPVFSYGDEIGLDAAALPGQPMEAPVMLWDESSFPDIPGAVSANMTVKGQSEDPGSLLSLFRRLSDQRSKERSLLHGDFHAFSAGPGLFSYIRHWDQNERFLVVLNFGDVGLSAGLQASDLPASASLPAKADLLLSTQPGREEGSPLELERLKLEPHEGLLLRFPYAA

T2: Human CD98 ECD with C-terminal His-tag (human, UniProt P08195 105-529)
T2 construct: also called huCD98 ECD; recombinant human CD98 extracellular domain
T2 sequence: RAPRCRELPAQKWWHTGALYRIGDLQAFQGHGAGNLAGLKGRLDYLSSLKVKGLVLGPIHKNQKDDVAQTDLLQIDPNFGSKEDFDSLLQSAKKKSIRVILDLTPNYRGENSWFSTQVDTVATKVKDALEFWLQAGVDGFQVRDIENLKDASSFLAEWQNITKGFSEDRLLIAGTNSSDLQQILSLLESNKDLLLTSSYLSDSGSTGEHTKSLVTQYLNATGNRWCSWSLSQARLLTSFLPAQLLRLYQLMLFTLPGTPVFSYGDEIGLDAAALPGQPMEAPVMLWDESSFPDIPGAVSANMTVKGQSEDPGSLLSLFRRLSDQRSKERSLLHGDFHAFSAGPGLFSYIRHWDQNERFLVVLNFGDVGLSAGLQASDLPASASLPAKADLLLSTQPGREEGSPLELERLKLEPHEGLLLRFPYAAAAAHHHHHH

T3: Cynomolgus monkey CD98 ECD with C-terminal His-tag (cynomolgus monkey, UniProt P08195 105-529 (human entry))
T3 construct: also called cyCD98 ECD; recombinant cynomolgus monkey CD98 extracellular domain
T3 chain: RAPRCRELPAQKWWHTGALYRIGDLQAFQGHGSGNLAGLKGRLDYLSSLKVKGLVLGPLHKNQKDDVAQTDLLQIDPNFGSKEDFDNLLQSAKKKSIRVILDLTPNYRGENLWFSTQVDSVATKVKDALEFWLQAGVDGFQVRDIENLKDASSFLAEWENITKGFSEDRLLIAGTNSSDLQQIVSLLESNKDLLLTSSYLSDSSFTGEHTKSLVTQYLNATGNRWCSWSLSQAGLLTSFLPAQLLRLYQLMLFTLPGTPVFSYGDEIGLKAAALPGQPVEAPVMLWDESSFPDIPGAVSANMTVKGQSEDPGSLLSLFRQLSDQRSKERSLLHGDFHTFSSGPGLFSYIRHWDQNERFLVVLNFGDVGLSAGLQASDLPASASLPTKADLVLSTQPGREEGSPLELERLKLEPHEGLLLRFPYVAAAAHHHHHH

B1: Recombinant anti-CD98 chimeric antibody chAb4 (antibody, human IgG1, V domains shown)
VH: EVKLVESGGGLVQPGGSLRLSCTTSGFTFTDYYMSWVRQPPGKALEWLGFIRNKATIYTTEYSASVKGRFTISRDNSQSILYLQMNTLRAEDSATYYCARASYGNSEGWFAYWGQGTLVTVSA
VL: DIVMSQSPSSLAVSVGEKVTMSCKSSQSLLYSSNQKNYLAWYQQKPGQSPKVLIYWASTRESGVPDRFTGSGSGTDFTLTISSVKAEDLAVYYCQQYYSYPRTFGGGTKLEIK
B2: Recombinant anti-CD98 chimeric antibody chAb8 (antibody, human IgG1, V domains shown)
VH: EVQLVESGGGLVQPGRSLKLSCAASGFTFSDYAMAWVRQAPKKGLEWVASIIYDGRGTYYRDSVKGRFTISRDNAKSTLYLQMDSLRSEDTATYYCARQGDGTYYYWGYFDYWGQGVMVTVSS
VL: DIVMTQSPSSLAVSAGETVTINCKSSQSLLSSGNQKNYLAWYQQKPGQSPKLLIYWASTRQSGVPDRFIGSGSGTDFTLTINSVQAEDLAIYYCQQYYDTPYTFGAGTKLELK
B3: Recombinant anti-CD98 chimeric antibody chAb10 (antibody, human IgG1, V domains shown)
VH: B2 VH with G44S, S50T, Y60C, Y105H
VL: B2 VL with N82S, L110V, E111D
B4: Recombinant anti-CD98 chimeric antibody chAb11 (antibody, human IgG1, V domains shown)
VH: B2 VH with S50G
VL: B2 VL with K24R, N82S
B5: Recombinant anti-CD98 chimeric antibody chAb15 (antibody, human IgG1, V domains shown)
VH: B2 VH with A33T, S50T, G100S
VL: B2 VL with S31F, N82R, T100S
B6: Recombinant anti-CD98 chimeric antibody chAb12 (antibody, human IgG1, V domains shown)
VH: B2 VH with Y109S
VL: B2 VL with N82S, Y93H
B7: Recombinant anti-CD98 chimeric antibody chAb6 (antibody, human IgG1, V domains shown)
VH: QVQLKESGPGLAQPSQTLSLTCTVSGFSLSTYGVIWLRQPPGKGLEWMGVIWTNGNTNYNSTLKSRLSISRDTSESQVYLQMNSLQTEDTATYYCARHYYDGAYYYGYFDYWGQGVMVTVSS
VL: DIVMTQTPSSQAVSAGEKVTMSCKSSQSLLYSENKKNYLAWYQQKPGQSPKLLIYWASTRESGVPDRFIGSGSGTDFTLTISSVQAEDLAVYYCQQYYYFPYTFGAGTKLELK
B8: Recombinant anti-CD98 chimeric antibody chAb7 (antibody, human IgG1, V domains shown)
VH: B7 VH with A12V, L37V, T53A, E75K, Q81K, A103T
VL: B7 VL with S22N, A106P
B9: Recombinant anti-CD98 chimeric antibody chAb13 (antibody, human IgG1, V domains shown)
VH: B7 VH with A12V, T31S, L37V, V50I, T53A, T62A, E75K, Q81K, A103T, Y104H
VL: B7 VL with I2T, N37K, Y99N
notes: also called chAbl 3
B10: Recombinant anti-CD98 chimeric antibody chAb9 (antibody, human IgG1, V domains shown)
VH: B7 VH with A12V, T23A, T31N, L37V, G49A, E75K, Q81K, A103T
VL: B7 VL with S32T, I69M, T103M
B11: Recombinant anti-CD98 chimeric antibody chAb14 (antibody, human IgG1, V domains shown)
VH: EVKLQQSGDELVRPGASVKISCKASGYTFTSYSMHWVKERPGQGLEWIGAIFPIIGTTEYNQKFKGKATLTADKSSNTANMELSRLTSEDSAVYYCARVYLSYFDYWGQGVMVTVSS
VL: DIQMTQSPSFLSASVGDRVTINCKASQNINKYLDWYQRKHGEAPKLLIYNTNNLQTGIPSRFSGSGSGTDYTLTISSLQPEDVATYFCLQHSSRYTFGAGTKLELK

Target: T1, Human CD98 expressed on stably …
Assay: flow cytometry, CHO-K1 cells expressing human CD98
Method: (§1) Briefly, binding kinetics of anti-CD98 chimera mAbs for human and cynomolgus CD98 ECDs were determined by surface plasmon resonance-based measurements as described in Example 4. Table 10 reported the association and dissociation rate constants for CD98 binding, kₐ (M⁻¹s⁻¹) and kd (s⁻¹), and the equilibrium dissociation constant KD (M) of the interaction between antibodies and the target antigen. Binding of anti-CD98 chimera mAbs for CD98 on cell surface was evaluated by flow cytometry against CHO-K1 cell line stably transfected to express human CD98 and 3T12 cell line stably transfected to express cynomolgus monkey CD98.

Point of comparison: B6, EC50 2.89 nM. Against it:
- B1 — 1.9-fold higher, 5.41 nM
- B2 — within 1.5-fold, 2.61 nM
- B3 — 2.2-fold higher, 6.45 nM
- B4 — 1.6-fold higher, 4.57 nM
- B5 — 2.3-fold higher, 6.63 nM
- B7 — within 1.5-fold, 2.08 nM
- B8 — within 1.5-fold, 2.56 nM
- B9 — within 1.5-fold, 3.24 nM
- B10 — 3-fold higher, 8.55 nM
- B11 — within 1.5-fold, 3.75 nM

Target: T2, Human CD98 ECD with C-terminal His-tag
Assay: SPR Biacore, anti-Fc capture of mAb, CD98 ECD analyte
Method: (§2) The binding kinetics of these purified mouse and rat monoclonal anti-CD98 antibodies for purified recombinant CD98 protein (extracellular domain. ECD) were determined by surface plasmon resonance-based measurements made on Biacore T100/T200 instruments (GE Healthcare, Piscataway, N.J.) at 25° C. using an anti-Fc capture assay approach. Binding kinetic measurements were made in the assay buffer HBS-EP+: 10 mM Hepes, pH 7.4, 150 mM NaCl, 3 mM EDTA, 0.05% Tween 20). For example, approximately 8000 RU of anti-Fc (species specific) polyclonal antibody (Thermo Fisher Scientific Inc. Rockford, Ill.) diluted in 10 mM sodium acetate (pH 4.5) was directly immobilized across a CM5 research grade biosensor chip using a standard amine coupling kit according to manufacturer's instructions and procedures at 25 μg/ml. Unreacted moieties on the biosensor surface were blocked with ethanolamine. The test antibody to be captured as a ligand was diluted in running buffer to ˜0.5 μg/mL and injected over anti-Fc surface at a flow rate of 10 μL/min, CD98 binding and dissociation were observed under a continuous flow rate of 80 μL/min. Human and cynomolgus monkey CD98 ECDs, both with a C-terminal His-tag, are used for this study (Table 3). After each cycle the anti-Fc capture surface was regenerated using 10 mM Glycine-HCl, pH 1.5. During the assay, all measurements were referenced against the capture surface alone (i.e., with no captured test antibody) and buffer-only injections (no antigen) were used for double referencing. For kinetic analysis, rate equations derived from the 1:1 Langmuir binding model were fitted simultaneously, globally and with mass transfer term included to multiple referenced antigen binding curves using Biacore T100T200 Evaluation software.
(§3) Briefly, binding kinetics of anti-CD98 chimera mAbs for human and cynomolgus CD98 ECDs were determined by surface plasmon resonance-based measurements as described in Example 4.

Point of comparison: B9, Kd 1.2 nM. Against it:
- B1 — 2.3-fold higher, 2.8 nM
- B2 — 3.5-fold higher, 4.2 nM
- B3 — 2.8-fold higher, 3.3 nM
- B4 — 23-fold higher, 28 nM
- B5 — within 1.5-fold, 1.1 nM
- B6 — the same, 1.2 nM
- B7 — within 1.5-fold, 1.3 nM
- B8 — 2.7-fold lower, 0.45 nM
- B10 — 2.8-fold higher, 3.3 nM
- B11 — 3.2-fold higher, 3.9 nM

Point of comparison: B11, koff 8.4e-05 s⁻¹. Against it:
- B1 — within 1.5-fold, 7.8e-05 s⁻¹
- B2 — 3.3-fold higher, 0.00028 s⁻¹
- B3 — 3.9-fold higher, 0.00033 s⁻¹
- B4 — 15-fold higher, 0.0013 s⁻¹
- B5 — 1.8-fold lower, 4.6e-05 s⁻¹
- B6 — within 1.5-fold, 6.3e-05 s⁻¹
- B7 — 1.7-fold higher, 0.00014 s⁻¹
- B8 — within 1.5-fold, 6.2e-05 s⁻¹
- B9 — 1.9-fold higher, 0.00016 s⁻¹
- B10 — 2.9-fold higher, 0.00024 s⁻¹

Point of comparison: B8, kon 140000 M⁻¹ s⁻¹. Against it:
- B1 — 5-fold lower, 28000 M⁻¹ s⁻¹
- B2 — 2.1-fold lower, 67000 M⁻¹ s⁻¹
- B3 — within 1.5-fold, 100000 M⁻¹ s⁻¹
- B4 — 3.1-fold lower, 45000 M⁻¹ s⁻¹
- B5 — 3.3-fold lower, 43000 M⁻¹ s⁻¹
- B6 — 2.6-fold lower, 54000 M⁻¹ s⁻¹
- B7 — within 1.5-fold, 110000 M⁻¹ s⁻¹
- B9 — within 1.5-fold, 130000 M⁻¹ s⁻¹
- B10 — 1.9-fold lower, 73000 M⁻¹ s⁻¹
- B11 — 6.4-fold lower, 22000 M⁻¹ s⁻¹

Target: T3, Cynomolgus monkey CD98 ECD with …
Assay: as above
Method: as §2, §3

Point of comparison: B8, Kd 3.5 nM. Against it:
- B1 — 2.4-fold higher, 8.3 nM
- B2 — 4.9-fold higher, 17 nM
- B3 — 3.1-fold higher, 11 nM
- B4 — 31-fold higher, 110 nM
- B5 — within 1.5-fold, 3.7 nM
- B6 — within 1.5-fold, 3.8 nM
- B7 — 2.3-fold higher, 7.9 nM
- B9 — 2-fold higher, 7.1 nM
- B10 — 5.4-fold higher, 19 nM
- B11 — 31-fold higher, 110 nM

Point of comparison: B6, koff 9.3e-05 s⁻¹. Against it:
- B1 — within 1.5-fold, 7.3e-05 s⁻¹
- B2 — 5.4-fold higher, 0.0005 s⁻¹
- B3 — 6.9-fold higher, 0.00064 s⁻¹
- B4 — 22-fold higher, 0.002 s⁻¹
- B5 — within 1.5-fold, 7.4e-05 s⁻¹
- B7 — 4-fold higher, 0.00037 s⁻¹
- B8 — 2.4-fold higher, 0.00022 s⁻¹
- B9 — 4.7-fold higher, 0.00044 s⁻¹
- B10 — 6.8-fold higher, 0.00063 s⁻¹
- B11 — 15-fold higher, 0.0014 s⁻¹

Point of comparison: B10, kon 33000 M⁻¹ s⁻¹. Against it:
- B1 — 3.8-fold lower, 8800 M⁻¹ s⁻¹
- B2 — within 1.5-fold, 28000 M⁻¹ s⁻¹
- B3 — 1.8-fold higher, 59000 M⁻¹ s⁻¹
- B4 — 1.8-fold lower, 18000 M⁻¹ s⁻¹
- B5 — 1.6-fold lower, 20000 M⁻¹ s⁻¹
- B6 — within 1.5-fold, 24000 M⁻¹ s⁻¹
- B7 — within 1.5-fold, 47000 M⁻¹ s⁻¹
- B8 — 1.9-fold higher, 63000 M⁻¹ s⁻¹
- B9 — 1.9-fold higher, 62000 M⁻¹ s⁻¹
- B11 — 2.8-fold lower, 12000 M⁻¹ s⁻¹

Target: T4, Cynomolgus monkey CD98 expressed on stably transfected 3T12 cells (cynomolgus monkey)
T4 construct: whole, on cells; also called cyCD98
Assay: flow cytometry, 3T12 cells expressing cynomolgus CD98
Method: as §1

Point of comparison: B7, EC50 5.99 nM. Against it:
- B1 — 2.9-fold higher, 17.2 nM
- B2 — 1.7-fold higher, 10.1 nM
- B3 — 1.8-fold higher, 10.8 nM
- B4 — 2.8-fold higher, 16.9 nM
- B5 — 3.4-fold higher, 20.3 nM
- B6 — 2.5-fold higher, 14.9 nM
- B8 — within 1.5-fold, 6.49 nM
- B9 — 2-fold lower, 2.98 nM
- B10 — 1.9-fold higher, 11.1 nM
- B11 — 3-fold higher, 18 nM

Reference: patent publication US20200147235A1 (AbbVie / Abbott, published 2020)
